Starred links: 1 amine or outer side, 2 acyl side, 3 side chain; linkers in the order of their positions; H or OH if unused. Non-standard residues stand in square brackets, D forms with d. *: point of attachment. Pipz(1-CH2CO,4-CH2CH2NH) = O=C(CN1CCN(CCN[*:1])CC1)[*:2]; C18 diacid = O=C(O)CCCCCCCCCCCCCCCCC(=O)*; γGlu = O=C(O)[C@H](CCC(=O)[*:2])N[*:1]; 2Pal = N[C@@H](Cc1ccccn1)C(=O)O; 3Pal = N[C@@H](Cc1cccnc1)C(=O)O; NMeL = CN[C@@H](CC(C)C)C(=O)O; Nle = CCCC[C@H](N)C(=O)O; Sar = CNCC(=O)O
T1: human neuromedin U receptor 1 (human, UniProt Q9HB89 24-426)
T1 sequence (looked up): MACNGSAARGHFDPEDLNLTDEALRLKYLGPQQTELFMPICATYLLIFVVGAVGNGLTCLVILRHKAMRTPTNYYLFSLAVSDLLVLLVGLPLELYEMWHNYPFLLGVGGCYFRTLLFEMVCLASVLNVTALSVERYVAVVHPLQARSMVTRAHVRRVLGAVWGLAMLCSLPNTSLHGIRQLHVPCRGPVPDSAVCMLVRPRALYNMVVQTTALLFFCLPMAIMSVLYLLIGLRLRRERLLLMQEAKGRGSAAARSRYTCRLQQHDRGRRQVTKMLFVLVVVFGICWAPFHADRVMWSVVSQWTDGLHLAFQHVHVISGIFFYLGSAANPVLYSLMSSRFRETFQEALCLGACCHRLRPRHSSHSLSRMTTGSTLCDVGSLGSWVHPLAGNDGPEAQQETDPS


Target: T1, human neuromedin U receptor 1
Assay: cell-based or functional assay

EC50 (hNMUR1) buffer	Binder
1300 nM	EEEXXXXXXXXXXXXXXXXYFLXRARG (HELM PEPTIDE1{[O=C(O)CCCCCCCCCCCCCCCCC(=O)[*:2]].[gGlu].[gGlu].[gGlu].[Sar].[Sar].[Sar].[Sar].[Sar].[Sar].[Sar].[Sar].[Sar].[Sar].[Sar].[Sar].[Sar].[Sar].[Sar].[O=C(CN1CCN(CCN[*:1])CC1)[*:2]].Y.F.[meL].[Nle].[meR].[meA].R.G.[am]}$$$$V2.0; SMILES CCCC[C@H](NC(=O)[C@H](CC(C)C)N(C)C(=O)[C@H](Cc1ccccc1)NC(=O)[C@H](Cc1ccc(O)cc1)NC(=O)CN1CCN(CCNC(=O)CN(C)C(=O)CN(C)C(=O)CN(C)C(=O)CN(C)C(=O)CN(C)C(=O)CN(C)C(=O)CN(C)C(=O)CN(C)C(=O)CN(C)C(=O)CN(C)C(=O)CN(C)C(=O)CN(C)C(=O)CN(C)C(=O)CN(C)C(=O)CN(C)C(=O)CC[C@H](NC(=O)CC[C@H](NC(=O)CC[C@H](NC(=O)CCCCCCCCCCCCCCCCC(=O)O)C(=O)O)C(=O)O)C(=O)O)CC1)C(=O)N(C)[C@@H](CCCNC(=N)N)C(=O)N(C)[C@@H](C)C(=O)N[C@@H](CCCNC(=N)N)C(=O)NCC(N)=O) [C18DA-gGlu3-Sar15-AEPipAc-Tyr-Phe-NMeLeu-Nle-NMeArg-NMeAla-Arg-Gly-NH2]
> 1000 nM	EEEXXXXXXXXXXXXXXXXYFLXHPRG (HELM PEPTIDE1{[O=C(O)CCCCCCCCCCCCCCCCC(=O)[*:2]].[gGlu].[gGlu].[gGlu].[Sar].[Sar].[Sar].[Sar].[Sar].[Sar].[Sar].[Sar].[Sar].[Sar].[Sar].[Sar].[Sar].[Sar].[Sar].[O=C(CN1CCN(CCN[*:1])CC1)[*:2]].Y.F.[meL].[Nle].H.P.R.G.[am]}$$$$V2.0; SMILES CCCC[C@H](NC(=O)[C@H](CC(C)C)N(C)C(=O)[C@H](Cc1ccccc1)NC(=O)[C@H](Cc1ccc(O)cc1)NC(=O)CN1CCN(CCNC(=O)CN(C)C(=O)CN(C)C(=O)CN(C)C(=O)CN(C)C(=O)CN(C)C(=O)CN(C)C(=O)CN(C)C(=O)CN(C)C(=O)CN(C)C(=O)CN(C)C(=O)CN(C)C(=O)CN(C)C(=O)CN(C)C(=O)CN(C)C(=O)CN(C)C(=O)CC[C@H](NC(=O)CC[C@H](NC(=O)CC[C@H](NC(=O)CCCCCCCCCCCCCCCCC(=O)O)C(=O)O)C(=O)O)C(=O)O)CC1)C(=O)N[C@@H](Cc1c[nH]cn1)C(=O)N1CCC[C@H]1C(=O)N[C@@H](CCCNC(=N)N)C(=O)NCC(N)=O) [C18DA-gGlu3-Sar15-AEPipAc-Tyr-Phe-NMeLeu-Nle-His-Pro-Arg-Gly-NH2]
> 1000 nM	EEEXXXXXXXXXXXXXXXXYFLXHARG (HELM PEPTIDE1{[O=C(O)CCCCCCCCCCCCCCCCC(=O)[*:2]].[gGlu].[gGlu].[gGlu].[Sar].[Sar].[Sar].[Sar].[Sar].[Sar].[Sar].[Sar].[Sar].[Sar].[Sar].[Sar].[Sar].[Sar].[Sar].[O=C(CN1CCN(CCN[*:1])CC1)[*:2]].Y.F.[meL].[Nle].H.[meA].R.G.[am]}$$$$V2.0; SMILES CCCC[C@H](NC(=O)[C@H](CC(C)C)N(C)C(=O)[C@H](Cc1ccccc1)NC(=O)[C@H](Cc1ccc(O)cc1)NC(=O)CN1CCN(CCNC(=O)CN(C)C(=O)CN(C)C(=O)CN(C)C(=O)CN(C)C(=O)CN(C)C(=O)CN(C)C(=O)CN(C)C(=O)CN(C)C(=O)CN(C)C(=O)CN(C)C(=O)CN(C)C(=O)CN(C)C(=O)CN(C)C(=O)CN(C)C(=O)CN(C)C(=O)CC[C@H](NC(=O)CC[C@H](NC(=O)CC[C@H](NC(=O)CCCCCCCCCCCCCCCCC(=O)O)C(=O)O)C(=O)O)C(=O)O)CC1)C(=O)N[C@@H](Cc1c[nH]cn1)C(=O)N(C)[C@@H](C)C(=O)N[C@@H](CCCNC(=N)N)C(=O)NCC(N)=O) [C18DA-gGlu3-Sar15-AEPipAc-Tyr-Phe-NMeLeu-Nle-His-NMeAla-Arg-Gly-NH2]
200 nM	EEEXXXXXXXXXXXXXXXXYFLXRPRG (HELM PEPTIDE1{[O=C(O)CCCCCCCCCCCCCCCCC(=O)[*:2]].[gGlu].[gGlu].[gGlu].[Sar].[Sar].[Sar].[Sar].[Sar].[Sar].[Sar].[Sar].[Sar].[Sar].[Sar].[Sar].[Sar].[Sar].[Sar].[O=C(CN1CCN(CCN[*:1])CC1)[*:2]].Y.F.[meL].[Nle].[meR].P.R.G.[am]}$$$$V2.0; SMILES CCCC[C@H](NC(=O)[C@H](CC(C)C)N(C)C(=O)[C@H](Cc1ccccc1)NC(=O)[C@H](Cc1ccc(O)cc1)NC(=O)CN1CCN(CCNC(=O)CN(C)C(=O)CN(C)C(=O)CN(C)C(=O)CN(C)C(=O)CN(C)C(=O)CN(C)C(=O)CN(C)C(=O)CN(C)C(=O)CN(C)C(=O)CN(C)C(=O)CN(C)C(=O)CN(C)C(=O)CN(C)C(=O)CN(C)C(=O)CN(C)C(=O)CC[C@H](NC(=O)CC[C@H](NC(=O)CC[C@H](NC(=O)CCCCCCCCCCCCCCCCC(=O)O)C(=O)O)C(=O)O)C(=O)O)CC1)C(=O)N(C)[C@@H](CCCNC(=N)N)C(=O)N1CCC[C@H]1C(=O)N[C@@H](CCCNC(=N)N)C(=O)NCC(N)=O) [C18DA-gGlu3-Sar15-AEPipAc-Tyr-Phe-NMeLeu-Nle-NMeArg-Pro-Arg-Gly-NH2]
> 1000 nM	{C18 diacid}-[γGlu][γGlu][γGlu][Sar][Sar][Sar][Sar][Sar][Sar][Sar][Sar][Sar][Sar][Sar][Sar][Sar][Sar][Sar][Pipz(1-CH2CO,4-CH2CH2NH)]YF[NMeL][Nle][3Pal]PRG-NH2 (SMILES CCCC[C@H](NC(=O)[C@H](CC(C)C)N(C)C(=O)[C@H](Cc1ccccc1)NC(=O)[C@H](Cc1ccc(O)cc1)NC(=O)CN1CCN(CCNC(=O)CN(C)C(=O)CN(C)C(=O)CN(C)C(=O)CN(C)C(=O)CN(C)C(=O)CN(C)C(=O)CN(C)C(=O)CN(C)C(=O)CN(C)C(=O)CN(C)C(=O)CN(C)C(=O)CN(C)C(=O)CN(C)C(=O)CN(C)C(=O)CN(C)C(=O)CC[C@H](NC(=O)CC[C@H](NC(=O)CC[C@H](NC(=O)CCCCCCCCCCCCCCCCC(=O)O)C(=O)O)C(=O)O)C(=O)O)CC1)C(=O)N[C@@H](Cc1cccnc1)C(=O)N1CCC[C@H]1C(=O)N[C@@H](CCCNC(=N)N)C(=O)NCC(N)=O) [C18DA-gGlu3-Sar15-AEPipAc-Tyr-Phe-NMeLeu-Nle-3Pal-Pro-Arg-Gly-NH2]
> 1000 nM	{C18 diacid}-[γGlu][γGlu][γGlu][Sar][Sar][Sar][Sar][Sar][Sar][Sar][Sar][Sar][Sar][Sar][Sar][Sar][Sar][Sar][Pipz(1-CH2CO,4-CH2CH2NH)]YF[NMeL][Nle][2Pal]PRG-NH2 (SMILES CCCC[C@H](NC(=O)[C@H](CC(C)C)N(C)C(=O)[C@H](Cc1ccccc1)NC(=O)[C@H](Cc1ccc(O)cc1)NC(=O)CN1CCN(CCNC(=O)CN(C)C(=O)CN(C)C(=O)CN(C)C(=O)CN(C)C(=O)CN(C)C(=O)CN(C)C(=O)CN(C)C(=O)CN(C)C(=O)CN(C)C(=O)CN(C)C(=O)CN(C)C(=O)CN(C)C(=O)CN(C)C(=O)CN(C)C(=O)CN(C)C(=O)CC[C@H](NC(=O)CC[C@H](NC(=O)CC[C@H](NC(=O)CCCCCCCCCCCCCCCCC(=O)O)C(=O)O)C(=O)O)C(=O)O)CC1)C(=O)N[C@@H](Cc1ccccn1)C(=O)N1CCC[C@H]1C(=O)N[C@@H](CCCNC(=N)N)C(=O)NCC(N)=O) [C18DA-gGlu3-Sar15-AEPipAc-Tyr-Phe-NMeLeu-Nle-2Pal-Pro-Arg-Gly-NH2]
1300 nM	EEEXXXXXXXXXXXXXXXXYFLXKPRG (HELM PEPTIDE1{[O=C(O)CCCCCCCCCCCCCCCCCCC(=O)[*:2]].[gGlu].[gGlu].[gGlu].[Sar].[Sar].[Sar].[Sar].[Sar].[Sar].[Sar].[Sar].[Sar].[Sar].[Sar].[Sar].[Sar].[Sar].[Sar].[O=C(CN1CCN(CCN[*:1])CC1)[*:2]].Y.F.[meL].[Nle].K.P.R.G.[am]}$$$$V2.0; SMILES CCCC[C@H](NC(=O)[C@H](CC(C)C)N(C)C(=O)[C@H](Cc1ccccc1)NC(=O)[C@H](Cc1ccc(O)cc1)NC(=O)CN1CCN(CCNC(=O)CN(C)C(=O)CN(C)C(=O)CN(C)C(=O)CN(C)C(=O)CN(C)C(=O)CN(C)C(=O)CN(C)C(=O)CN(C)C(=O)CN(C)C(=O)CN(C)C(=O)CN(C)C(=O)CN(C)C(=O)CN(C)C(=O)CN(C)C(=O)CN(C)C(=O)CC[C@H](NC(=O)CC[C@H](NC(=O)CC[C@H](NC(=O)CCCCCCCCCCCCCCCCCCC(=O)O)C(=O)O)C(=O)O)C(=O)O)CC1)C(=O)N[C@@H](CCCCN)C(=O)N1CCC[C@H]1C(=O)N[C@@H](CCCNC(=N)N)C(=O)NCC(N)=O) [C20DA-gGlu3-Sar15-AEPipAc-Tyr-Phe-NMeLeu-Nle-Lys-Pro-Arg-Gly-NH2]
> 1000 nM	EEEXXXXXXXXXXXXXXXXYFLXKARG (HELM PEPTIDE1{[O=C(O)CCCCCCCCCCCCCCCCCCC(=O)[*:2]].[gGlu].[gGlu].[gGlu].[Sar].[Sar].[Sar].[Sar].[Sar].[Sar].[Sar].[Sar].[Sar].[Sar].[Sar].[Sar].[Sar].[Sar].[Sar].[O=C(CN1CCN(CCN[*:1])CC1)[*:2]].Y.F.[meL].[Nle].K.[meA].R.G.[am]}$$$$V2.0; SMILES CCCC[C@H](NC(=O)[C@H](CC(C)C)N(C)C(=O)[C@H](Cc1ccccc1)NC(=O)[C@H](Cc1ccc(O)cc1)NC(=O)CN1CCN(CCNC(=O)CN(C)C(=O)CN(C)C(=O)CN(C)C(=O)CN(C)C(=O)CN(C)C(=O)CN(C)C(=O)CN(C)C(=O)CN(C)C(=O)CN(C)C(=O)CN(C)C(=O)CN(C)C(=O)CN(C)C(=O)CN(C)C(=O)CN(C)C(=O)CN(C)C(=O)CC[C@H](NC(=O)CC[C@H](NC(=O)CC[C@H](NC(=O)CCCCCCCCCCCCCCCCCCC(=O)O)C(=O)O)C(=O)O)C(=O)O)CC1)C(=O)N[C@@H](CCCCN)C(=O)N(C)[C@@H](C)C(=O)N[C@@H](CCCNC(=N)N)C(=O)NCC(N)=O) [C20DA-gGlu3-Sar15-AEPipAc-Tyr-Phe-NMeLeu-Nle-Lys-NMeAla-Arg-Gly-NH2]

From US20240279278A1, “NMU RECEPTOR 2 AGONISTS” (Boehringer Ingelheim International GmbH, priority 2023, published 2024)
